# From US20130203655A1, “METHODS FOR PREVENTING OR TREATING VIRAL INFECTION” (priority 2010, published 2013)
# How the values were obtained:
# [1] = test system: DENV1 H244A prM-E VLP; settings: 20 mM NH4Cl, total 36 h, vs untreated cells
# Method: (§1) Expression of prM-E and VLP production. WT and E H244A mutant DENV1 prM-E sequences were PCR-amplified from the pGDENV1 3.3 subclones described above, and cloned into pcDNA4/TO (Invitrogen, Life Technologies, Carlsbad, Calif.). These constructs were transfected into T-REx™-293 cells (Invitrogen, Life Technologies, Carlsbad, Calif.) using Lipofectamine™ 2000 (Invitrogen, Life Technologies, Carlsbad, Calif.) and selected in T-REx HEK medium containing 125 μg/ml Zeocin, all as previous described.
# (§2) For VLP secretion studies, 2-3×10^6 cells were seeded in 10 cm plates, cultured for 24 h, and then induced by culture for 36 h in 1.5 μg/ml tetracycline in DME medium with 10% FCS at 37° C. The culture media were centrifuged at 10,000×g for 30 min to remove cell debris. VLPs were then pelleted through a 0.5 ml sucrose cushion by centrifugation at 54,000 rpm for 2 h at 4° C. using a TLS55 rotor. To test the effect of neutralizing the pH of acidic cellular compartments, cells were seeded and induced as above. After 2 h of induction the media were changed to DME medium containing 20 mM HEPES pH 8.0, 2% FCS, and 1.5 μg/ml tetracycline plus 20 mM NH4Cl as indicated, and the incubation continued for a total of 36 h. E proteins in the cell lysates were immunoprecipitated using mAb 4G2.
# [2] = test system: DENV1 WT prM-E VLP; settings: 20 mM NH4Cl-treated vs untreated cells
# Method: as §1, §2
# [3] = target: DENV2 E DI/II protein (monomeric, E residues 1-291, STST tag), wild type (Dengue virus 2 New Guinea C (NGC) strain); experiment: cell-based or functional assay
# [4] = target: DENV2 E DI/II H244A protein (Dengue virus 2 New Guinea C (NGC) strain); experiment: cell-based or functional assay
# [5] = target: DENV2 E′ protein (dimeric E ectodomain, E residues 1-395, ST tag) (Dengue virus 2 New Guinea C (NGC) strain); experiment: cell-based or functional assay
compound,measurement,setting,value
Cl.N [NH4Cl],increase in production of VLP containing H244A mutant E protein,[1],4-7 fold
same,WT VLP production,[2],similar
"DENV2 NGC DIII protein (LDIIIH1CS, E residues 289-430)",DI/II co-floatation with liposomes at low pH in the presence of DIII (none with BSA in place of DIII),[3],25%
recombinant DENV2 pr peptide (prM residues 1-86 with N-terminal GS and C-terminal tandem Strep tag),"efficiency of floatation of H244A DI/II with liposomes, in the absence of pr",[4],43%
same,"efficiency of floatation of H244A DI/II with liposomes, in the presence of pr",[4],47%
same,"E′ co-floatation with liposomes at pH 5.75, pr:E′ molar ratio 12:1 (about 70% with a control protein)",[5],2%
same,"E′ co-floatation with liposomes, pr:E′ molar ratio 3:1",[5],22%
same,"E′ co-floatation with liposomes, pr:E′ molar ratio 6:1",[5],8%
same,"E′ co-floatation with liposomes, pr:E′ molar ratio 24:1",[5],0.4%
